The target in one series is T1, IL18-BP (Mus musculus, UniProt Q9Z0M9).
T1 sequence (Q9Z0M9 29-193): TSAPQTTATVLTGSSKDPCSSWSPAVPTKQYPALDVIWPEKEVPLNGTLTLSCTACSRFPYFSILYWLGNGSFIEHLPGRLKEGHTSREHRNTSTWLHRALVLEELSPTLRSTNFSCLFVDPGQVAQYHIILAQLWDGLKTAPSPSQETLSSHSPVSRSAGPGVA
The following applies: cited from earlier work.

Series [1] deals with MC38ova tumor-bearing mice. Briefly: Peripheral effects in MC38ova tumor-bearing mice: anti-mIL18BP vs engineered mIL-18. Particulars: mouse, in vivo. Type of series: in vivo. The protocol: Nine days pre-inoculum, vials of MC38ova^dim cells were thawed into RPMI media containing 10% FBS, 1% Glutamax, 1% Sodium pyruvate, 1% HEPES, 1% NEAA, 0.01% 2-mercaptoethanol, 1% Penicillin-Streptomycin. Following centrifugation at 300×g for 8 min, cell pellet was resuspended, counted and seeded in a T175 flask. On days −7, −5 and −2, the cells were detached and re-seeded at 6-8*10^6 cells/T175 flask. On the day of inoculum, the cells were detached, centrifuged at 300×g for 10 min, filtered through […] cell strainer and resuspended in RPMI.
Experiments were performed in C57Bl/6 (female, 6-8 wk, Envigo). Mice were anesthetized with 10% Ketamine and 10% Xylazine mixture injected intraperitoneal. Next, mice were inoculated with MC38ova cells (1.2×10^6) subcutaneously to the right flank in 50 μl/mice.
At tumor volume of −120 mm^3 (day 9), mice were randomly assigned into treatment groups. Mice were treated with Synagis mouse IgG1, k isotype control 15 mg/kg (IP), anti-mIL18 bp 837 mIgG1 15 mg/kg (IP), PBS (SC), or engineered IL-18 (SC) 0.32 mg/kg. Treatments were injected twice a week for a total of 6 treatments. […] Mice were weighed every week. Mice were bled before the 4th treatment, 4 hours after the 4th treatment, and 24 hours after the 4th treatment. Serum was analyzed for presence of IFNg, TNFα, MCP1, IL6 by Cytometric Bead Array (CBA) Mouse Inflammation Kit (BD Cat. No. 552364). Spleens were harvested from mice 24 hours after the 4th treatment and weighed. For IL15 experiments, mice were treated with a single dose of 0.5 μg, 1.5 μg of IL15, or with a mix of 0.5 μg IL15 and 2.33 μg IL15R.
Spleens were crushed into 40 μm filters and red blood cells were lysed. Single-cell suspensions were seeded into a 96-well V-bottomed plate. Cells were labeled for viability and dead cells were excluded using the Fixable Viability Stain 450 (BD Bioscience Cat #562247). To block Fcγ receptors, cells were incubated with 10 μg/mL of Purified Rat Anti-Mouse CD16/CD32 (Mouse BD Fc Block™, BD Bioscience Cat #553142) in cold 1×PBS buffer for 10 minutes. Various immune populations were stained with anti-mouse antibodies (Table 17). After washing (1% BSA, 0.1% sodium azide, in PBS), cells were acquired on FACS Fortessa cytometer (BD Bioscience). Analysis was done using FlowJo.

The values below come from patent US20240425607A1, “IL-18BP ANTAGONIST ANTIBODIES AND THEIR USE IN MONOTHERAPY AND COMBINATION THERAPY IN THE TREATMENT OF CANCER” (Compugen Ltd., priority 2023, published 2024).

B1: engineered mIL-18: Engineered IL-18 of US 20190070262A1, SEQ ID NO: 1920 (protein)
chain: HFGRLHCTTAVIRNINDQVLFVDKRQPVFEDMTDIDQSASEPQTRLIIYAYGDSRARGKAVTLSVKDSKMSTLSCKNKIISFEEMDPPENIDDIQSDLIFFQKRVPGHNKMEFESSLYEGHFLACQKEDDAFKLILKKKDENGDKSVMFTLTNLHQSHHHHHH
On to B1, for which, in the series with IL18-BP, the “Binding to IL18-BP” value is on record as “not to bind IL18-BP”. Also, in series [1], the “Activation state of splenic lymphocytes vs control” value is “significantly more CD69+CD4+ T-cells, CD69+CD8 T-cells, CD69+B Cells, CD107+NK cells, and CD69+CD107+ NKT cells”; the “Serum levels of IL18, 4 hours after the 4th treatment” value is “very high serum levels of IL18”; the “Serum levels of IL18, 24 hours after the 4th treatment” value is “returned to baseline”; the “Spleen enlargement vs control, average” value is listed as 4.9 folds. Besides, the “Splenic CD45+ immune cells, CD3+ T cells and CD19+ B cells vs control” value in series [1] was “larger number of CD45+ immune cells, as well as CD3+ T cells and CD19+B cells”.
